Assay results as given in the DeepSol protein solubility set.

Experiment: soluble on expression in E. coli; label from the status in PepcDB or PDB records

Soluble on expression in E. coli, not soluble:
MGSDKIHHHHHHMSKLSNLITQYCPEGVEYKTLGECGKFYGGLTGKSKKDFEDGNSKFITYKNVYSNPALCLDVEDKVRIEPGERQRTLEYGDIVFTGSSETPDECGISSVVAEIPEENLYLNSFCFIFRFDDPSILLPDFAKHLFRSSELRYQIGKTASGVTRYNVSKKLMGKVSFPVPPLEVQREIVRVLDSFTLLTAELTAELTARKQQYEFYRDYLLNGNSDYDICNLGDVCDVVAGGTPSRKVSDYWEDGCIPWLGSTVCKNKKNVDEPTEFITELGLEKSSAKMMKKDTTLIALVGATIGKVAFTTFDVAINQNIAGVYPKDTSKINPSYIYYACTTLYPHFLNLTQGSKLAMANLTFVRGLKISVPPIDVQNHLVNVLDNFESITSDLSIGLPAEIEARKKQYEYYRDALLTYASTGKIIARQTEHN
MGSDKIHHHHHHMSKLVTIYGGSGFVGRYIARRMAKEGWRVRVAVRRPNEAMHVKPYGAVGQVEPVLCNLRDDNSVAQTMRGADAVVNCVGVLNELGRNSFDAVQAEGAERIARIAAEQGVARMVHVSAIGADGDSDSAYSRSKALGEAGVLRHMPDAMILRPSVIFGTEDQFFNRFAGMTRFGPFLPVVGAETRFQPVYVDDVARAAVKGVLGQAPGGVYELGGPDVETFRALMQRMLGVIHRKRIIIALPFFAARIMAGMLDVAKFVSFQLFPNNILTRDQLKNLRRDNVVSEGAKGFADLGIAPEPMDTVLPAYLWKFRPNGQYDEIQASAKNLRA
MGSDKIHHHHHHMSKRMIITVGDARVGKSTVIKLLLEIFAQQGKRIKVYNQESFPVFQAYEHIATIKKFNLSNDDADAITDDLNHPELDVMIVDMPGQDIEKVIQYIESASLFEVVVKFGWNLTFLQPISHRKDCIYYLNAIIQNATNNANYVVVKNYHFAPEFREYEEKMRKKLLIIGGTEVELMALHRNHYQAMEKADKPYSQVCQDLSIILFWRSFIFQWIKKFHHSVMNNHLAIKYLGLD
MGSDKIHHHHHHMSLHSDILVVGAGPAGLSFAAELAGSGLKVTLIERSPLTVLQNPPYDGREIALTHFSREIMQRLGMWDKIPENEIYPLRDAKVLNGRSDYQLHFPQPTEARGEPADCLGYLISNHNIRRAAYEVVSQLDNVSILTDTAVKEVKTSDNEAQVFLENGDILTARLLLAADSRFSQTRRQLGISSDMHDYSRTMFVCRMKHTLSNQHTAYECFHYGRTIALLPLEKRLTNTVITVDTDKINSVQNLSPEELAASVKEQLKGRLGDMELVSSIHHYPLVGMIAKRFYGKRSALIGDAAVGMHPVTAHGFNLGLSSADILAKLILEAEQRGQDIGAASLLEKYSSKHMLHAHPLYHGTNMMLKLFTNETAPAKLLRGLVLRAGNNFPPLKKLITKQLTG
MGSDKIHHHHHHMSLRRIMVTAVRNLHPVTLLPSPRINILYGANGSGKTSVLEAVHLLGLARSFRSTRLNPVIQYEQAACTVFGEVQLTEGGTSNLGVSRERQGEFTIRIDGQNARSAAQLAELLPLQLINPDSFRLLEGAPKIRRQFLDWGVFHVEPRFLPAWQRLQKALRQRNSWLRHGTLDPASQAAWDRELCLASAEIDEYRRNYIKALKPVFERTLSELVELDGLTLSYYRGWDKDRELQEVLASSLLRDQQMGHTQAGPQRADLRLRLAGNNAADILSRGQQKLVVCALRIAQGHLVSQARRGHCIYLVDDLPSELDDQHRRALCRLLEELRCQVFITCVDHELLREGWQTETPVALFHVEQGRITQTHDHRE
MGSDKIHHHHHHMSNLKPDSVIACLDCPNHVQAVLEASMWASIRLQAPIGLLYSVPSLQQKAAVDYSGCLNIDDENTLLDQFTAKEHLSNCELKAQGKRLLHQASSYCEQQRHKIKTYTLHRHEKLDESINYVDDQAQLIVIGHHVTCKSTLSQLIRSSHCPILVTHAPFLPPTSALFAFDNSPTSHKMLNWLCKTPLVRALMIHIVMVSKENSENCDALREAYARLKQAGIKCKKTLLDCRDVTSALTYYQHDNDIGLLMTGAFAQPRLIELLKGSDTKKLLGSTTTPYLLFPKA
MGSDKIHHHHHHMSNNIFTVYGEVPELVEKKTKEIVNDYLGQKIDDFNYVKYNLYESDLTPIIEETLTMPFFSNKKAIVVKNSYVFTGEKFSKDLNHNSDELIKFLEKYDGENLIIFEVYQPKLDERKKLTKTLKKNAQLKKIEQMSEKELKHWIKNTLNNNYKDIKQDALELFIELTGVNYNIVSQELEKLILFIGERPIINKDDIDLIINRSLEQNVFLLTEYIQKGNKNKAIQLVNDLIIMKEEPIKLLALITSNYRLYYQCKILSQKGYSGQQIAKTVNAHPYRVKLALNQSRHYKLESLFNIINACAETDYKLKSSYMDKQLILELFILSL
MGSDKIHHHHHHMSNSLKASTTGLGIVDKARKRLGWTKTSTACWWQDAHTSRATLRRFWQGDRIQQEIFIAICQAVGINDWQNIAEIPNADFEETSTQYLDWDDAPDLESFYGRNQELAQLEEWILGDRCKLIIITGIAGIGKTALALALADLLQLKFDGLIWKTLHSVPSLVPLLDGLLHTFKQTPVDDIPSDTAKLIHHLQQRRCLLILDGLDESEKHYHQFIQQLSRAHHQSCIILTSREQPNIIESNTKTVRSLTLTGLPKDDAVKLLQARGFTGKEIGLSPLIQLYRGNPLALKLVTPLIQSVFGGNIAAFLSQNTIVIGDRLRAILKQQFEQLSDLEQNILYWLAIWQQPISFSRLQTHLLISLDPATVLDAIVSLERRSLLEKWICSDAPAFTLQPLVMKIATDELVERATQEIIQVMQSRDIADFKVLRTHWLLRPGSDDIVGDRILHQLQEKLWQIYGANLVQNLQQILLLLNDKSPLTIGYIACNITTIITKGV
MGSDKIHHHHHHMSNTNDLLNRINAKYSTMSKGHKLLATYITDNYDKAVFLTAAKMGETVGISESTVVRFATSLGYKGYPDFQKALEELVRNKLNSVQRMEVTYGRISQSQILETVLQSDRDKIKTTLEKIDADAFDLAVDTILQSRKIYIVGIRSCAPLASFLAFYMNLMFEDVCLLTTNSSSELFEQMVRIGKDDVIIGISFPRYSMRTLKALEFANNRSAKVITITDSIHSPMNLYSSCNLIADSDMASIVDSLVAPLSVINALIVALCMKKQNIVAKTLTELEDIWNEYQVYENDEIDYIDDSIKVHYAKLGDSQDE
MGSDKIHHHHHHMSQQASLPDDDNWLLEDTDGDEAGRPSEVRKPWKVLIVDDEKDVHTATRIALRGISYKERPLELLSAYSGAEAFQMLQQHADIALIMLDVVMESEDAGLRLVHRIREELDNGVVRIVLRTGQPGQAPEQEVILNYDINDYKTKTELTTQKLFTTTIASLRAYENLVSLEKNRQGLAKILESASDLYQLHSLREFASGVLRQISALLDIGTDGILCVRNDNLVGRPELEILAVSGAYEYLAESGDLSNEPHLAAVFQQVFKEKRSIYQHPYDVLYISSRNRREFAVHFMPQWPLDSVERDLLDVFCQRISAAYDNLYLYNQLRSAQEATVVALADLAEFRDTDTGDHVLRVQKLTDAIAEEMVSHNHYPELMTHEFMDMVGMASILHDIGKVATPDHILLKPGKLDPEERAIMEQHATIGAQILAKSAQLVEGASYLSLGSEIAGGHHEHFDGNGYPGKLQGQAIPLSARIVAVVDVFDALLNKRPYKEPWSMEDTMKYINGRSGTQFDPHVVAALSRLVSEDRLPVQFGD
MGSDKIHHHHHHMSQRLQALYGLKWNPFSPELPLEALYVPPRVENFCWRIENALVREGGFAMIHGEPGTGKSVVMRVLAEKLERLTDLTVVSINHPQSNLADFYREMGDIFGLELRPHNRWGGFRSLRDRWMSHLQSTRRRPILLIDEAQEMSPGVLNELRLMASARFDSQPLLCVVLAGDTRLTDKLRRDELLPLGSRIRSRLGTEKASADDLLACLDHLLASAGAPQLMTPPLRHTLCEHALGNYRVLTTLANELLTTAAQRELSELDEKLYFEVFAPSTQSSRRTPARQPNGAR
MGSDKIHHHHHHMSRGIYIVANDRVIDNAIALLNSIRYYDPEVTIYLIPFNENYHKVAEQLSTLHKVQIFPDLELIDKFTKRIGEIFDRDFLALPNKMRKLVAWFGPLDEFIYIDTDIVVFEKIADNLDKLSEVDFFCCDYHYANDKLRNIFSPFVKEQQLFSDAQLQDVFNSGFWASRKGVITEEQMDEALRECAAHREYFDFSEGVTDQPILNYLVLKLIDKRGNLVKIPGGGPGSWAGSQSFQQQDYALYDRGQRLKYLHWAGTRMKTGSPYWQLWEHYRYLHEGKFAFISKLTRRLFPFVAART
